According to US20050079156A1, “Method of treating endometreosis” (priority 2001, published 2005):
One block for each molecule: values may come before it.

Assays:
Type in all cases: cell-based
human preadipocytes = assay: Cytokine stimulation of estradiol production in human preadipocytes; conditions: 72 hr, FIG. 9
Method: […] The amount of estradiol release in the conditioned media was determined by radioimmunoassay for estradiol using the Active™ Estradiol EIA kit according to the manufacturer's instructions (catalog no. DSL-10-4300, Diagnostic Systems Laboratories, Inc., Webster, Tex.). Each value represents the mean±S.E.M. of triplicate wells. Similar results were reproducible in 10 additional experiments using cells derived from either male or female patients.

human adipocytes = assay: Estradiol production in cultured human adipocytes (estradiol in conditioned media); conditions: for estradiol production stimulated by a mixture of 6 cytokines: mix of IL-1b, TNF-α, IL-6, IL-8, IL-11, oncostatin M 0.01 ug/ml each, IFN-α 1 ug/ml, IFN-b 2 ug/ml, FIG. 4; for estradiol production (effect of cytokine alone): human adipocytes, different doses of IL-1α and IL-1β
Method: Human subcutaneous cultured adipocytes, catalog nos. SP-1012, SP-1024, SP-1096, SP-75, or SP-25 were purchased from Zen-Bio, Inc. (Research Triangle Park, N.C.) and cultured according to the manufacturer's instructions.
Human adipocytes (approximately 100,000 cells/well) were cultured for 24 hr in the presence or absence of different doses of IL-1α and IL-1β (as indicated) with and without IFN-γ (0.1 ug/ml, IL-1α, IL-1β and IFN-γ were purchased from R&D). The amount of estradiol release in the conditioned media was determined by radioimmunoassay for estradiol using the Active™ Estradiol EIA kit according to the manufacturer's instructions (catalog no. DSL-10-4300, Diagnostic Systems Laboratories, Inc., Webster, Tex.). Each value represents the mean±S.E.M. of triplicate wells.
Human adipocytes (100,000 cells/well) were cultured for 72 hr with and without increasing doses of IFN-γ (0.0001 to 1 ug/ml, purchased from R&D). The amount of estradiol in the conditioned media was determined by radioimmunoassay as described in Example 1. Each value represents the mean±S.E.M. of triplicate wells.
Human adipocytes (100,000 cells/well) were cultured for 72 hr in the presence or absence of different doses of the mix Cytokines (IL-1b, TNF-α, IL-6, IL-8, IL-11 and oncostatin M, 0.01 ug/ml/each—dilution as indicated) with and without IFN-γ (0.1 ug/ml), […] (1 ug/ml) or IFN-b (2 ug/ml). IFN-α was purchased from PBL while IFN-b was obtained from Serono. The amount of estradiol release in the conditioned media was determined by radioimmunoassay as described in Example 1. Each value represents the mean±S.E.M. of triplicate wells.
(§1) Human adipocytes (100,000 cells/well) obtained from Zen-Bio,Inc were cultured for 48 hr in the presence or absence of different doses of the cytokine mix (dilution as indicated) with and without IFN-γ (0.1 ug/ml). The amount of estradiol release in the conditioned media was determined by radioimmunoassay as described in Example 1. Each value represents the mean±S.E.M. of triplicate wells.
as §1, with “Zen-Bio, Inc” for “Zen-Bio,Inc”, “72” for “48”, “LPS (as” for “the cytokine mix (dilution as”, “ug/ml, LPS were purchased from Sigma).” for “ug/ml).”
as §1, with “Zen-Bio, Inc” for “Zen-Bio,Inc”, “the” for “the cytokine”, “mix LPS, PMA and PGE2” for “mix”, “ug/ml). IFN-γ was added at the same as the mix, 8 hr or 24 hr after the mix of the LPS, PMA and PGE2 which were purchased from Sigma.” for “ug/ml).”

aromatase mRNA = assay: Aromatase mRNA expression in human adipocytes by RT-PCR; conditions: for aromatase mRNA expression (induction by cytokine alone): cytokine 0.1 ug/ml
Method: Adipocyte cultures were treated with IL-1-β, IFN-γ, TNF-α, and combinations of IL-1-β, and IFN-γ and TNF-α and IFN-γ. Subsequently, total RNA from cultured adipocytes was isolated using conventional methods. The reverse transcriptase polymerase chain reaction (RT-PCR) was performed using aromatase specific primers. The amplified aromatase cDNA fragments produced by RT-PCR were separated on an agarose gel. As shown in the FIG. 3, IL-1 and TNF alone induce transcription of aromatase mRNA compared to untreated control. However, the administration of IFN-γ inhibits the transcription of aromatase mRNA when given together IL-1 or TNF.
Human adipocytes (from one flask with 100% confluence) obtained from Zen-Bio,Inc were cultured for 72 hr in the presence or absence of 0.1 ug/ml of different Cytokines as indicated with and without IFN-γ (0.1 ug/ml, all Cytokines were purchased from R&D except FAS ligand, TRAIL and OX40 Ligands were obtained from Alexis). Total RNA was extracted for RT-PCR (30 cycles with 50 ng RNA/each sample) using human aromatase and GAPDH specific oligos (20 mers).

Molecule: GH: human growth hormone
- estradiol production (stimulation by cytokine) (human preadipocytes; cytokine 5 ug/ml): stimulate

Molecule: IFN-α
- estradiol production stimulated by a mixture of 6 cytokines (human adipocytes; 72 hr, IFN-γ 0.1 ug/ml): do not inhibit

Molecule: IGF-1: insulin growth factor-1
- estradiol production (stimulation by cytokine) (human preadipocytes; cytokine 5 ug/ml): stimulate

- transcription of aromatase mRNA (cytokine alone compared to untreated control) (aromatase mRNA; adipocyte cultures, FIG. 3): induce
- aromatase mRNA expression (induction by cytokine alone) (aromatase mRNA; 72 hr, FIG. 8): induce
Molecule: IL-1β: interleukin-1 beta, cytokine purchased from R&D
- estradiol production (effect of cytokine alone) (human adipocytes; 24 hr, FIG. 1): significantly increased estradiol production

- aromatase mRNA expression (induction by cytokine alone) (aromatase mRNA; 72 hr, FIG. 8): induce
Molecule: IL-6: interleukin-6, cytokine
- estradiol production (stimulation by cytokine) (human preadipocytes; cytokine 0.5 ug/ml): stimulate

Molecule: IL-8: interleukin-8, cytokine
- estradiol production (stimulation by cytokine) (human preadipocytes; cytokine 0.5 ug/ml): stimulate

- aromatase mRNA expression (induction by cytokine alone) (aromatase mRNA; 72 hr, FIG. 8): induce
Molecule: LIF: leukemia inhibitory factor, cytokine

- aromatase mRNA expression (induction by cytokine alone) (aromatase mRNA; 72 hr, FIG. 8): induce
Molecule: TRAIL: tumor necrosis factor-related apoptosis-inducing ligand, obtained from Alexis

- aromatase mRNA expression (induction by cytokine alone) (aromatase mRNA; 72 hr, FIG. 8): induce
B1: OX40L: OX40 Ligand, obtained from Alexis (protein, UniProt P23510 1-183, looked up)
Tumor necrosis factor ligand …: MERVQPLEENVGNAARPRFERNKLLLVASVIQGLGLLLCFTYICLHFSALQVSHRYPRIQSIKVQFTEYKKEKGFILTSQKEDEIMKVQNNSVIINCDGFYLISLKGYFSQEVNISLHYQKDEEPLFQLKKVRSVNSLMVASLTYKDKVYLNVTTDNTSLDDFHVNGGELILIHQNPGEFCVL

- aromatase mRNA expression (induction by cytokine alone) (aromatase mRNA; 72 hr, FIG. 8): induce
B2: IL-11: interleukin-11, cytokine (protein, UniProt P20809 22-199, looked up)
Interleukin-11: PGPPPGPPRVSPDPRAELDSTVLLTRSLLADTRQLAAQLRDKFPADGDHNLDSLPTLAMSAGALGALQLPGVLTRLRADLLSYLRHVQWLRRAGGSSLKTLEPELGTLQARLDRLLRRLQLLMSRLALPQPPPDPPAPPLAPPSSAWGGIRAAHAILGGLHLTLDWAVRGLLLLKTRL
- estradiol production (stimulation by cytokine) (human preadipocytes; cytokine 0.5 ug/ml): stimulate

B3: OSM: oncostatin M, cytokine (protein, UniProt P13725 26-221, looked up)
Oncostatin-M: AAIGSCSKEYRVLLGQLQKQTDLMQDTSRLLDPYIRIQGLDVPKLREHCRERPGAFPSEETLRGLGRRGFLQTLNATLGCVLHRLADLEQRLPKAQDLERSGLNIEDLEKLQMARPNILGLRNNIYCMAQLLDNSDTAEPTKAGRGASQPPTPTPASDAFQRKLEGCRFLHGYHRFMHSVGRVFSKWGESPNRSRR
- estradiol production (stimulation by cytokine) (human preadipocytes; cytokine 0.5 ug/ml): stimulate

- constitutive aromatase mRNA (aromatase mRNA; adipocyte cultures, Example 3): Inhibited
- transcription of aromatase mRNA when given together IL-1 or TNF (aromatase mRNA; adipocyte cultures, FIG. 3): inhibits
- induced expression of aromatase mRNA by TRAIL, OX40, IL-1β, IL-6, IL-11 and LIF (aromatase mRNA; cytokines 0.1 ug/ml, IFN-γ 0.1 ug/ml, 72 hr, FIG. 8): inhibits
B4: IFN-γ: interferon-gamma, recombinant human, purchased from R&D (protein, UniProt P01579 24-161, looked up)
Interferon gamma: QDPYVKEAENLKKYFNAGHSDVADNGTLFLGILKNWKEESDRKIMQSQIVSFYFKLFKNFKDDQSIQKSVETIKEDMNVKFFNSNKKKRDDFEKLTNYSVTDLNVQRKAIHELIQVMAELSPAAKTGKRKRSQMLFRG
- estradiol production stimulated by a mixture of 15 cytokines (human adipocytes; 15 cytokines 0.01 ug/ml each, 48 hr, IFN-γ 0.1 ug/ml, FIG. 5): inhibited
- LPS stimulated estradiol production (human adipocytes; 72 hr, IFN-γ 0.1 ug/ml, FIG. 6): inhibits
- IL-1α and IL-1β induced estradiol production (human adipocytes; IFN-γ 0.1 ug/ml, 24 hr, FIG. 1): inhibits
- constitutive estradiol production (human adipocytes; IFN-γ 0.0001 to 1 ug/ml, 72 hr, FIG. 2): dose-dependent inhibitory effect
- PMA, LPS and PGE2 stimulated estradiol production (human adipocytes; mix PMA 5 ng/ml, LPS 10 ug/ml, PGE2 10 ug/ml, 48 hr, IFN-γ 0.1 ug/ml added at same time, 8 hr or 24 hr after the mix, FIG. 7): inhibits
- estradiol production stimulated by a mixture of 6 cytokines (human adipocytes; 72 hr, IFN-γ 0.1 ug/ml): inhibits

B5: IL-1α: interleukin-1-alpha, cytokine purchased from R&D (protein, UniProt P01583 113-271, looked up)
Interleukin-1 alpha: SAPFSFLSNVKYNFMRIIKYEFILNDALNQSIIRANDQYLTAAALHNLDEAVKFDMGAYKSSKDDAKITVILRISKTQLYVTAQDEDQPVLLKEMPEIPKTITGSETNLLFFWETHGTKNYFTSVAHPNLFIATKQDYWVCLAGGPPSITDFQILENQA
- estradiol production (effect of cytokine alone) (human adipocytes; 24 hr, FIG. 1): significantly increased estradiol production
